The values that follow come from article PMC5773694.

For the test, the target named is T1, Arabidopsis serine/threonine/tyrosine protein kinase (STYK, At2g24360) (Arabidopsis thaliana) (UniProt Q9ZQ31).
T1 sequence: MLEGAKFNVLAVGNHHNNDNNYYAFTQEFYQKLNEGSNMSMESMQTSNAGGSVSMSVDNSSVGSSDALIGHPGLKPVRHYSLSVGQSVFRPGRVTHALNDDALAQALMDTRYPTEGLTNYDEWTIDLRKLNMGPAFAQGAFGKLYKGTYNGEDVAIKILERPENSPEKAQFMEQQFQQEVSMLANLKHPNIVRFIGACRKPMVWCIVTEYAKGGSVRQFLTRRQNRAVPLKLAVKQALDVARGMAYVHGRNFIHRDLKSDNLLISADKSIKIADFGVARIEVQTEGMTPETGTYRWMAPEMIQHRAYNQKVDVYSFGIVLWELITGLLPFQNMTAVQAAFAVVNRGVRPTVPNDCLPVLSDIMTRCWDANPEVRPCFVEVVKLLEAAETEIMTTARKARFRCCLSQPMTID

B1: Arabidopsis caleosin 4 (CAL4, At1g70670), probable peroxygenase 4 (natural protein)
chain: MASSISTGVKFVPEEDNFLQRHVAFFDRNKDGIVYPSETFQGFRAIGCGYLLSAVASVFINIGLSSKTRPGKGFSIWFPIEVKNIHLAKHGSDSGVYDKDGRFVASKFEEIFTKHAHTHRDALTNEELKQLLKANKEPNDRKGWLAGYTEWKVLHYLCKDKNGLLHKDTVRAAYDGSLFEKLEKQRSSKTSKKHP
Consider B1, for which the Km of STYK for CAL4 as substrate, in vitro kinase assay was determined as 0.997 µM.

B2: Arabidopsis oleosin 1 (OLE1, At4g25140), oleosin 18.5 kDa (natural protein)
chain: MADTARGTHHDIIGRDQYPMMGRDRDQYQMSGRGSDYSKSRQIAKAATAVTAGGSLLVLSSLTLVGTVIALTVATPLLVIFSPILVPALITVALLITGFLSSGGFGIAAITVFSWIYKYATGEHPQGSDKLDSARMKLGSKAQDLKDRAQYYGQQHTGGEHDRDRTRGGQHTT
Take B2: the Km of STYK for OLE1 as substrate, in vitro kinase assay stood at 0.966 µM.
